Target: GST-BRCA1 (tandem BRCT) M1775R (UniProt P38398)
Test: pull-down

fold change of binding against BRCA1 (tandem BRCT) WT: 3 to 5 fold
B1: His-GIV-CT (aa 1660-1870) (domain or fragment)
chain: SETLESRHHKIKTGSPGSEVVTLQQFLEESNKLTSVQIKSSSQENLLDEVMKSLSVSSDFLGKDKPVSCGLARSVSGKTPGDFYDRRTTKPEFLRPGPRKTEDTYFISSAGKPTPGTQGKIKLVKESSLSRQSKDSNPYATLPRASSVISTAEGTTRRTSIHDFLTKDSRLPISVDSPPAAADSNTTAASNVDKVQESRNSKSRSREQQSS

From publication doi:10.1101/2021.07.21.452842
